Source: patent publication US20240293478A1

What was measured:
[1] = molecular target: mouse TGF-β1 (R&D systems) (mouse) (UniProt P04202); test: direct ELISA with mouse TGF-β1; concentrated supernatant of transfected HEK293T cells
[2] = molecular target: mouse TGF-β1 (R&D systems) (mouse) (UniProt P04202); test: direct ELISA with mouse TGF-β1; supernatant of transfected HEK293T cells
[3] = molecular target: recombinant murine CTLA-4-human IgG1 Fc chimera (R&D Systems) (mouse; human) (UniProt P09793); test: competitive ELISA; competitor mouse CD80 coated at 100 ng/ml, 10 ng/ml murine CTLA-4-human IgG1 Fc mixed with HEK293T supernatant, anti-human IgG1-HRP
[4] = molecular target: recombinant murine CTLA-4-human IgG1 Fc chimera (R&D Systems) (mouse; human) (UniProt P09793); test: competitive ELISA; competitor mouse CD86 coated at 100 ng/ml, 10 ng/ml murine CTLA-4-human IgG1 Fc mixed with HEK293T supernatant, anti-human IgG1-HRP
[5] = molecular target: IL-12 receptor on HEK-Blue IL-12 cells (UniProt P42701); test: cell-based or functional assay
IL-12 receptor on HEK-Blue IL-12 cells, sequence (Q99665 24-862, chain 2 of 2, other chains not shown): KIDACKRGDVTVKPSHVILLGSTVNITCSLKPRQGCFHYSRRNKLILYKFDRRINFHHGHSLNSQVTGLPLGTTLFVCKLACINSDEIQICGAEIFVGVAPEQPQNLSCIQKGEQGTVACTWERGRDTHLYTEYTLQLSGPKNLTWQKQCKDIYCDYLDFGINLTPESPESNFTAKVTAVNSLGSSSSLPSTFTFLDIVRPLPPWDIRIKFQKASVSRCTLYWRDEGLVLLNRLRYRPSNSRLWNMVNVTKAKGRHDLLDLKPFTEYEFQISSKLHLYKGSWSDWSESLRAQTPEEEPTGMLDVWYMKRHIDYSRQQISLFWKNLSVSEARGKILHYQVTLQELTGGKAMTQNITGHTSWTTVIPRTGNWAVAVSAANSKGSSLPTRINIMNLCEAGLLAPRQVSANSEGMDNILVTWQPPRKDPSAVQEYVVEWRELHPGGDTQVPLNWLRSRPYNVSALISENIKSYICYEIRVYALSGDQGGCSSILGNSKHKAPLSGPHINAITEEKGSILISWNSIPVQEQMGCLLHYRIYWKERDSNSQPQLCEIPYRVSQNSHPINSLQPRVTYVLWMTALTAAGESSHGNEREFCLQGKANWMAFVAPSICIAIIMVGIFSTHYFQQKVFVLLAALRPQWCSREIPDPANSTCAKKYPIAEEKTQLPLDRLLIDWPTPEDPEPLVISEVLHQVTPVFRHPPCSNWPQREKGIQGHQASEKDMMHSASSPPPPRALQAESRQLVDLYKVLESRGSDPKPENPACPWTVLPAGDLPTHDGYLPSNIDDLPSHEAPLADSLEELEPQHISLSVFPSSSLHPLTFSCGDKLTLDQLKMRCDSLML

recombinant murine CTLA-4-human IgG1 Fc chimera (R&D Systems) (mouse; human), sequence (P09793 36-162 limits assumed, change not shown): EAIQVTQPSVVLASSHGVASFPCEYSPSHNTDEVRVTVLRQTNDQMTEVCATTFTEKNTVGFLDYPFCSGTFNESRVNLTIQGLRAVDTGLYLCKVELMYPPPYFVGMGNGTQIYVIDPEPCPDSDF
mouse TGF-β1 (R&D systems) (mouse), sequence (P04202 279-390 limits assumed): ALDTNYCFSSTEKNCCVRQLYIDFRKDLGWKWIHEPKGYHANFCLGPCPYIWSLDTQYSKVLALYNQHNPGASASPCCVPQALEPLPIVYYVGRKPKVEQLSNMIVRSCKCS

In the case of “Soluble mouse TGFβ receptor II Fc (from UniProt Q62312 24-166) (Fc fusion)”, the Absorbance at 450 nm (absorbance (450 nm)) [1] is reported as 1.52 and the Absorbance at 450 nm (absorbance (450 nm)) [2] is reported as 1.51.
With ipilimumab scFv antibody fragment the % CD80 Blockade Activity [3] was 7% and the % CD86 Blockade Activity [4] was 32.5%.
Human membrane bound IL-12p70 (ligand) gave an STAT4-SEAP (Absorbance/% GFP); transfected HEK cells co-cultured with HEK-Blue IL-12 cells (Absorbance/% GFP) [5] of 0.237.
In the case of muIL-12p70 (ligand), the STAT4-SEAP (Absorbance/% GFP); transfected HEK cells co-cultured with HEK-Blue IL-12 cells (Absorbance/% GFP) [5] is reported as 0.11.
For Mouse membrane bound IL-12p70 (ligand), the STAT4-SEAP (Absorbance/% GFP); transfected HEK cells co-cultured with HEK-Blue IL-12 cells (Absorbance/% GFP) [5] was 0.117.
For huIL-12p70 (ligand), the STAT4-SEAP (Absorbance/% GFP); transfected HEK cells co-cultured with HEK-Blue IL-12 cells (Absorbance/% GFP) [5] was 0.11.
